What was measured:
hfRPE monolayers [1] = assay: Transepithelial fluid transport (JV) across hfRPE monolayers, capacitance probe technique; type: cell-based, human; settings: for normal fluid absorption after MEK inhibitor: IFN-γ (15 ng/ml, FIG. 10B) to basal bath after 72 hours 10 μM plus acute 100 μM MEK inhibitor; for rescue of apical MEK inhibitor-induced reduction in fluid absorption: basolateral IFN-γ (10 ng/ml, FIGS. 11A, 11B) after acute apical MEK inhibitor
Text: Confluent monolayers of hfRPE cultured on transwells were mounted in an electrophysiological chamber and transepithelial water flow (JV) measurements were made with a capacitance probe technique as described previously in Maminishkis 2006; Shi, G., et al., Invest Ophthalmol Vis Sci, 2008, 49, 4620-4630; Edelman, J. L., et al., Invest Ophthalmol Vis Sci, 1991, 32, 3033-3040; Jiang, C., et al., Science, 1993, 262, 424-427; and Maminishkis, A., et al., Invest Ophthalmol Vis Sci, 2002, 43, 3555-3566, each incorporated herein by reference in its entirety. In brief, the RPE is mounted in a water-jacketed ? ssing chamber and oriented vertically with the apical and basolateral membranes separately exposed to Ringer's solution held in bathing reservoirs. Stainless steel probes (Accumeasure System 1000; MT Instruments, Latham, N.Y.) are lowered into the apical and basolateral bathing wells to measure the capacitance of the air gap between the probe and fluid meniscus. Fluid transport rate JV (μl·cm^−2·hr^−1) is determined by monitoring the fluid movement-induced changes in the air gap capacitance at the apical and basolateral baths. The probes on both sides of the tissue are backed off from the surface of the Ringer's solution during a bathing solution change.
The capacitance probes are moved away from the bathing reservoirs and fresh control Ringer's solution perfused into the chamber. The fluid transport apparatus also allows continuous monitoring of TEP and RT, but for technical reasons (e.g., solution perfusion rates, TEP/RT sampling rates, and electrode stability) the initial changes in TEP and RT can only be compared to those seen in the electrophysiology experiments. Experiments are continued only if JV, TEP, and RT are not appreciably altered by this control-to-control Ringer's solution change. The water jacketed ? ssing chamber is placed in an incubator to maintain steady-state control over temperature, pCO2, and humidity.
Tissue viability was ascertained by recording transepithelial potential (TEP) and total tissue resistance (RT). It should be noted that the solution composition changes in this chamber were relatively slow (≈1-2 chamber volumes per minute) and the data sampling rate was once per minute, more than two orders of magnitude slower than the sampling rate in the electrophysiology chamber (see below). Therefore it was not possible to record fast changes, in seconds or minutes, in JV, TEP, or RT. After addition of IFNγ to the apical or basal baths, steady-state JV, TEP, and RT were recorded for 20-30 minutes. In control experiments, successive additions of IFNγ were made to test for the repeatability and reversibility of responses.
Effects of MEK inhibitor on human fetal retinal pigment epithelium (hfRPE) were measured following acute and chronic addition of inhibitor. Experiments were performed using hfRPE monolayers grown on semipermeable inserts with media access to apical and basal sides of the epithelium. In different sets of experiments, MEK inhibitor was added to apical, basal, or both sides of hfRPE mounted in modified ? ssing chambers. In chronic experiments hfRPE were pre-treated with 10 μM MEK inhibitor added to apical and basal baths for 24, 48, or 72 hours. For chronic experiments lasting more than 24 hours, transepithelial resistance (TER) was measured daily. Prior to the transfer of the epithelial monolayer to the ? ssing chamber, the TER of whole insert was compared to the TER measured in the ? ssing chamber. This procedure helps confirm the tissue integrity following the transfer from the cell culture insert to the ? ssing chamber. The TER summary data for chronic experiments contains cumulative recordings of TER obtained from inserts and ? ssing chambers.

[2] = tested on: patients with uveitic cystoid macular edema; assay: Phase I open label trial of topical IFNγ in patients with CME secondary to uveitis; type: in vivo, human
Experimental: A phase I open label clinical trial was conducted aimed at investigating the safety and tolerability of topically applied IFN gamma in patients with uveitic cystoid macular edema. To test whether cystoid macular edema (CME), secondary to uveitis, is caused by the disequilibrium of the JAK/STAT and mTor signal transduction pathways in the retinal pigment epithelium (RPE), IFNγ was topically applied in human patients. Five participants with CME secondary to uveitis received a topical ocular instillation of IFNγ in a Phase I, non-randomized, prospective, uncontrolled, dose-escalation, single-center study. The study involved a one-time instillation or series of instillations of IFNγ on the cornea and measurement of a response with optical coherence tomography (OCT) over a three hour period.
A 25% decrease in macular thickness is observed at a post-instillation as compared to baseline. In the study, the first two participants received one instillation (each instillation contains 10 μg in 0.05 mL solution) on the cornea at time zero, the next two participants received two instillations, 10 minutes apart, for a total dosage of 20 and the final participant received three instillations, 10 minutes apart, for a total of 30 μg. OCT was obtained at −60 minutes, −30 minutes and just before the instillation(s). Repeat OCTs were taken at +30 minutes, +60 minutes and +120 minutes. All participants returned for a one-week safety visit.
The primary outcome was the change in central macular thickness as measured by OCT in response to interferon IFNγ as compared with baseline. Secondary outcomes included changes in macular volume as measured by OCT, visual acuity, intraocular pressure, intraocular inflammation and ocular surface irritation assessed by fluorescein staining of the cornea and conjunctiva to assess toxicity. For safety measurements, the following were measured: the presence of ocular surface irritation assessed by fluorescein staining of the cornea and conjunctiva to assess toxicity; the number and severity of systemic and ocular toxicities and adverse events; and the proportion of participants with a visual loss of ≧15 ETDRS letters.
All participants undergo a dilated ophthalmic examination the day of the testing. One eye is chosen as the study eye. The participants receive the evaluation around 12:00 p.m. Participants then have a OCT at −60 minutes, −30 minutes and just before the ocular instillation. The ocular instillation occurs no earlier than 1:00 p.m. Repeat OCT recordings are taken at +30, +60 and +120 minutes after instillation. There is a window of ±15 minutes for each OCT test.
OCT testing is performed with the Cirrus™ high-definition OCT (Carl Zeiss Meditec, Inc.) scanner using a 512×128 scan pattern where a 6×6-mm area on the retina is scanned with 128 horizontal lines, each consisting of 512 A-scans per line (a total of 65,536 sampled points) within a scan time of 2.4 seconds. The scanner automatically focuses on the macula. Data for macular thickness calculations are collected from an array of A-scans distributed across the macular using the macular thickness analysis algorithm. The three pre-instillation measurements are averaged to calculate the baseline macular thickness measurement. Post-instillation OCT macular thickness calculations (+30, +60 and +120 minutes) is compared to the baseline measurement separately. A 25% reduction in central macular thickness is observed in treated patients.
Interferon γ-1b is administered as follows: • 1. Topical tetracaine 1% or proparacaine 0.5% drops are applied to the study eye surface one to two minutes prior to instillation. • 2. The participant applies punctal pressure to his/her […] eye. • 3. The investigator holds the participant's study eye open. • 4. A volume of 0.05 mL of IFNγ is instilled on the center of the study eye's cornea from a tuberculin syringe. • 5. […]

[3] = tested on: patients with central serious chorioretinopathy; assay: Topical IFN gamma in patients with central serious chorioretinopathy (ongoing trial); type: in vivo, human
Text: Topical IFN gamma was also studied in the treatment of serious retinal detachments in patients with central serious chorioretinopathy. […] This occurred during the second week of a two-week course of therapy.

hfRPE monolayers [4] = settings: IFN-γ in basal bath, increased from 7; Li et al., 2009; cited from earlier work
[5] = tested on: animal model of retinal-reattachment; settings: topical addition, cited from earlier work

B1: IFNγ: interferon-γ or, equivalently, interferon-γ1b (CAS number 82115-62-6), pleiotropic cytokine (protein, UniProt P01579 24-161, looked up)
Interferon gamma: QDPYVKEAENLKKYFNAGHSDVADNGTLFLGILKNWKEESDRKIMQSQIVSFYFKLFKNFKDDQSIQKSVETIKEDMNVKFFNSNKKKRDDFEKLTNYSVTDLNVQRKAIHELIQVMAELSPAAKTGKRKRSQMLFRG
hfRPE monolayers [1]
  normal fluid absorption after MEK inhibitor: rescue of fluid transport
  rescue of apical MEK inhibitor-induced reduction in fluid absorption: reverse
hfRPE monolayers [1]; listed as IFN-γ
  normal fluid absorption after MEK inhibitor: partially restored
  rescue of apical MEK inhibitor-induced reduction in fluid absorption: almost completely rescued
hfRPE monolayers [1]; IFN-γ added to basolateral bath after chronic 10 μM (72 hours) plus acute apical 100 μM MEK inhibitor
  restoration of MEK inhibitor-decreased fluid absorption: almost completely restored
hfRPE monolayers [1]; IFNγ 5 ng/ml in the basal bath (FIG. 7)
  increase of JV: ~8.6 μl·cm−2·hr^−1
hfRPE monolayers [1]; IFNγ added to the basal side of hfRPE (FIG. 7)
  fluid transport across RPE: significantly increase
hfRPE monolayers [1]; IFNγ treatment of hfRPE
  cell viability as measured by TEP and RT: did not affect cell viability
hfRPE monolayers [1]; increased from 12.9±1.6, mean±SEM, p<0.01
  mean JV after IFNγ: 20.5±3.1 μl·cm−2·hr^−1
[2]; 5 patients
  ocular surface irritation by slit lamp exam: no patient developed evidence of ocular surface irritation
  serious adverse events: no serious adverse events
[2]; 5 patients, 1-week period
  tolerability of drops: well tolerated
[2]; 5 patients, during 1-week period or beyond
  patients reporting irritation or other new ocular complaints: none of the 5 patients
[2]; most patients
  thickness and volume of macular edema by OCT: slight (albeit clinically insignificant) decrease
[2]; topical instillation 10-30 μg, post-instillation +30, +60, +120 minutes
  decrease in (central) macular thickness by OCT compared to baseline: 25%
[3]; both affected patients, no persistent ocular changes
  resolution of redness after cessation of drops: within one day
[3]; four patients studied so far
  clinical outcome in serious retinal detachments: some clinical success
[3]; second week of a two-week course of therapy
  painless conjunctival injection with no change in vision: two of the four patients
hfRPE monolayers [4]
  steady state Jv after IFN-γ: 16 μl·cm−2·hr^−1
[5]; monitored by high resolution OCT
  subretinal fluid: remove fluid from the subretinal space
[5]
  JAK/STAT pathway: activated

From US20150265679A1, “METHOD OF REDUCING ADVERSE EFFECTS IN A CANCER PATIENT UNDREGOING TREATMENT WITH A MEK INHIBITOR” (THE UNITED STATES OF AMERICA, as represented by THE …, priority 2013, published 2015)
